The data set can be described thus: yeast display, Sf9 membrane polyspecificity reagent, FACS + sequencing; frameworks hold sequencing errors. In a few lines: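 Synthetic nanobody libraries on Saccharomyces cerevisiae BJ5465 were galactose-induced for 36–48 hours, stained 1 hour at 4 °C with 10% biotinylated, detergent-solubilized Sf9 membrane reagent and enriched on streptavidin microbeads. FACS then separated cells into low and high (top ~1%) gates by anti-HA (expression) and streptavidin (reagent binding) fluorescence. Genes were colony-PCR amplified, MiSeq 2 × 250 sequenced and CDR-length filtered. A clone's polyreactivity label is that of its gate of origin.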
Turning to “QVQLLESAGGLVQAGGSLRLICAASGSTFYNYAMGWYRQAPGKERELVDSITSSGVSTYYADSVKGRFTISRDIAKNTVYLQMNSLKPDDTAVYYCNADDGYGQVHSISTYEMDYWGQGTQVTVSS”, the “polyreactivity (PSR sort gate)” value is “low polyreactivity”.
The same measure for “QVQLVESGGGLVQAGGSLRLSCAASGYTFNIYAMGWYRQAPGKERELVAAITSRGGGTYYADSVKGRFTISRDNAKNTVYLQMNSLKPEDTAVYYCAADVYSYYHWYTHYDYWGQGTQVTVSS”: “high polyreactivity”.
With “QVQLVESGGGLVQAGGSLRLSCAASGSTLDVYAMGWYRQAPGKERELVAAISWSVGSTYYADSVKGRFKISRDNAKNTVYLQMNSLKPEDTAVYYCAAEPYEYAYYGYDYWGQGTQVTVSS”, the “polyreactivity (PSR sort gate)” value is on record as “high polyreactivity”.
The entry for “QVQLVESGGGLVQAGGSLRLSCAATGRIFTTYAMGWYRQAPGKERELVAAITSGGGTYYADSVKGRFTISRDNAKNTVYLQMNSLKPEDTAVYYCNADYSADYYWYYYCGQGTQVTVSS” is “low polyreactivity”; for “QVQLVESVGGLVQAGGSLRLSCAASGLTFRKYAMGWYRQAPGKERELVAGISSGGSTYYADSVKGRFTISRDNAKNTVYLQMNSLKPEDTAVYYCAAKALRTMYYWGQGTQVTVSS” it is “high polyreactivity”; for “QVQLVESGGGLVQAGGSLRLSCAASGRIFLLNAMGWYRQAPGKERELVAAITSGGTTYYADSVKGRFTISRDNAKNTVYLQMNSLKPEDTAVYYCAAEAGYFTYGRRDYWGQGTQVTGSS” it is “low polyreactivity”.
Take “QVQLVEAGGGLVQAGGSLRLSCAASGSTFVKNAMGWYRQAPGKERELVAAISYRGGRTYYADSVKRRFTISRDNAKNTVYLQMNSLKPEDTAVYYCAADASHLTGYEYWGQGTQGTVSS”: the “polyreactivity (PSR sort gate)” value is listed as “high polyreactivity”.
The entry for “QVQLVESGGGLVQAGGSLRLSCAASGFIFDTYALGWYRQAPGKERELVAVMSSSGGRTYYADSVKGRFTISRDNAKNTVYLQMNSLKPEDNAVYYCAARWYSGYGRFDYWGQGTQVTVSS” is “high polyreactivity”.
In the case of “QVQLVESGGGLVQAGGSLRLSCAASGSTYPYPYTMGWSRQAPGKERELVAVISRTGGSTFYADSVKGRFTISRDNAKNTVHLQMNSLKPEDTAVYYCAARRDGWTFWKYDYWGQGTQVTVSS”, the “polyreactivity (PSR sort gate)” value is “high polyreactivity”.
The same measure for “QVQLVESGGGLVQAGGSLRLSCAASGRIFDDYAMGWYRQAPGKERELVAAISSSGGSTYYADSVKGRFTISRDNAKNTVYLQMNSLKPEDTAVYYCARYPPGRRRYEYWGQGTQVTVSS”: “high polyreactivity”.
Consider “QVQLVESGGGLVQAGGSLRLSCAASGSTFAVYAMGWNRQAPGKERELVASITRGGSTYYADSVKGRFTISRDNAKYTVYLQMNSLKPEDTAVYYCADSITHYWYGYWGQGTQVTVSS”, for which the “polyreactivity (PSR sort gate)” value was “high polyreactivity”.
As to “QVQLVESGGGLVQAGGSLRLSCAASGRILKRYAMGWYRQAPGKERELVAAINWNGGSTYYADSVKGRFTISRDNAKNTVYLQMNSLKPEDTAVYYCAAYYGTPRGFDYWGQGTQVTVSS”, the “polyreactivity (PSR sort gate)” value is “high polyreactivity”.
The entry for “QVQLVESGGGLVQAGGSLRLSCAASGYIFGRNAMGWYRQAPGKEREFFAAISSSGSSTYYADSVKGRFTISRDKAKNTVYLQMNSLKPEDTAVYYCNADRLRSTHDYWGQGTQVTVSS” is “high polyreactivity”; for “QVQLVESGGGLVQAGGSLRLICAASGRIFYFYAMGWYRQAPGKERELVAAISTSGGSTYYADSVKGRFTISRDNAKNTVYLQMNSLKPEDTAVYYCAARFRYYGSEYDYWGQGTQVTVSS” it is “low polyreactivity”; for “QVQLVESGGGLVQARGSLRLSCAATGFTIWQNAMGWYRQPQGKERELVAGIRLSGGSTYADSVKGRFTIARDNAKNTVYLQMNSLKPEDTAVYYCAARIAGNYRYRSLRYDYWGQGTQVTVSS” it is “high polyreactivity”.
The entry for “QVQHVESGGGLVQARGSLRLSCAASGLTFNTYAMGWYRQAPGQDRELVAAISRRGSRTYYADSVKGRFTISRDNAKNTVYLQMNSLNREDTAVYYCAAPRASGYYWGQGTQVTVSS” is “high polyreactivity”.
